From article PMC7129694 (Clinical Microbiology and Infection, 2005) come the findings set out here.

In this assay the target is Purified recombinant rClfB protein (clumping factor B of Staphylococcus aureus) (Staphylococcus aureus, UniProt O86476 45-877).
Sequence of Purified recombinant rClfB protein (clumping factor B of Staphylococcus aureus) (O86476 45-877): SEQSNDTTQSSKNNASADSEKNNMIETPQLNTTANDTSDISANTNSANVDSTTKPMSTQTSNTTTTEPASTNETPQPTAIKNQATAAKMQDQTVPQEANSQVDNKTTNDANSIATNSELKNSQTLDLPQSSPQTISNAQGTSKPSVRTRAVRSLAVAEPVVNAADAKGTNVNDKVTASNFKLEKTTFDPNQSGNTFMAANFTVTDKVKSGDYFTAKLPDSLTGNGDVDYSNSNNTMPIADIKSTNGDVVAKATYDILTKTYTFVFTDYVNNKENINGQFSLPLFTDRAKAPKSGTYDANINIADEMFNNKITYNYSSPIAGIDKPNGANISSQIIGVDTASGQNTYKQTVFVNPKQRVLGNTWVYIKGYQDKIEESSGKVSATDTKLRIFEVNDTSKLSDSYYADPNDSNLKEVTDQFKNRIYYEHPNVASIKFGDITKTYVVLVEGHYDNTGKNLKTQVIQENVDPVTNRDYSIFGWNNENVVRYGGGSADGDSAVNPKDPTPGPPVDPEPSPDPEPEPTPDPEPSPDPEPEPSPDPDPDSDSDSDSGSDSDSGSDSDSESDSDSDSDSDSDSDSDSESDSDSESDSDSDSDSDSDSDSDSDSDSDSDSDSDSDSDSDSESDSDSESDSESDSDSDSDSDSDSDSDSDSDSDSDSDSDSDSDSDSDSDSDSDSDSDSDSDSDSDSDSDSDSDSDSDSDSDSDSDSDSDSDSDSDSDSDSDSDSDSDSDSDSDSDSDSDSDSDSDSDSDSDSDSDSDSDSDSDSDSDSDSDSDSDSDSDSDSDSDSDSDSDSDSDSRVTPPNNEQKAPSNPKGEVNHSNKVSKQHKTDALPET

B1: Purified recombinant human cytokeratin 10 (natural protein, UniProt P13645 1-584, looked up)
chain: MSVRYSSSKHYSSSRSGGGGGGGGCGGGGGVSSLRISSSKGSLGGGFSSGGFSGGSFSRGSSGGGCFGGSSGGYGGLGGFGGGSFRGSYGSSSFGGSYGGIFGGGSFGGGSFGGGSFGGGGFGGGGFGGGFGGGFGGDGGLLSGNEKVTMQNLNDRLASYLDKVRALEESNYELEGKIKEWYEKHGNSHQGEPRDYSKYYKTIDDLKNQILNLTTDNANILLQIDNARLAADDFRLKYENEVALRQSVEADINGLRRVLDELTLTKADLEMQIESLTEELAYLKKNHEEEMKDLRNVSTGDVNVEMNAAPGVDLTQLLNNMRSQYEQLAEQNRKDAEAWFNEKSKELTTEIDNNIEQISSYKSEITELRRNVQALEIELQSQLALKQSLEASLAETEGRYCVQLSQIQAQISALEEQLQQIRAETECQNTEYQQLLDIKIRLENEIQTYRSLLEGEGSSGGGGRGGGSFGGGYGGGSSGGGSSGGGHGGGHGGSSGGGYGGGSSGGGSSGGGYGGGSSSGGHGGSSSGGYGGGSSGGGGGGYGGGSSGGGSSSGGGYGGGSSSGGHKSSSSGSVGESSSKGPRY
Take B1: the Kd (usually the concentration at which binding is half-saturated) was 1.4 to 1.7 µM.
